Target: T1, OC2 (CUT-HOX) (human, UniProt O95948 330-485)
T1 sequence: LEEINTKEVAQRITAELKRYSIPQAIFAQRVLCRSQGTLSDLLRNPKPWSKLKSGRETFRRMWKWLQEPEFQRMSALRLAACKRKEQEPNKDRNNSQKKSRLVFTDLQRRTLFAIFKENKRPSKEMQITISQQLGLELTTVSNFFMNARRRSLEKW
Assay: BLI

B1: PEG10 promoter duplex, biotinylated (dsDNA)
DNA 1: AGATCGATTTGC
DNA 2: GCAAATCGATCT
modifications: 5'-biotin on one strand
  binding result: binds
